According to the supplement of paper PMC11196671:
± gives the standard deviation of the averaged measurements.

Columns and labels:
[1] = PET hydrolysis product formed (TPA+MHET+BHET, UV-Vis) per mg enzyme (mmol/mg enzyme); higher = more PET depolymerisation activity; extreme values may be limits of the assay; settings: 24 h
Protocol: (§1)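 Purified PET hydrolases, 2.5 ug enzyme on 3.5 mg amorphous PET film (aFilm) or crystalline PET powder (cryPow) in 0.5 mL of 50 mM buffer (NaCitrate pH 4.5/5.5, NaPhosphate 6.5/7.5, glycine 8.5/9.5) at 60 or 70 C with shaking for 24 h. Total aromatic product by UV-Vis (260/280 nm, blank-subtracted, normalised per mg enzyme) and individual TPA, MHET, BHET concentrations by UHPLC-DAD at 240 nm; duplicate reactions.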

[2] = terephthalic acid (TPA) released, HPLC; higher = more TPA released; extreme values may be limits of the assay; settings: 24 h
Protocol: as §1

[3] = PET hydrolysis product formed (TPA+MHET+BHET, UV-Vis) per mg enzyme (mmol/mg enzyme); higher = more PET depolymerisation activity; extreme values may be limits of the assay; settings: 2 h
Protocol: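 Purified PET hydrolases (His-SUMO cleaved, E. coli C41(DE3) small-scale expression), 2.5 ug enzyme on 3.5 mg amorphous PET film (aFilm) or crystalline PET powder (cryPow) in 0.5 mL of 50 mM buffer (NaCitrate pH 4.5/5.5, NaPhosphate 6.5/7.5, glycine 8.5/9.5) at 60 or 70 C with shaking for 2 h. Soluble aromatic products (TPA+MHET+BHET) were quantified by UV-Vis at 260/280 nm, blank-subtracted against the no-enzyme control, and normalised per mg enzyme; duplicate reactions.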

[4] = MHET released, HPLC; higher = more MHET released; extreme values may be limits of the assay; settings: 24 h
Protocol: as §1

QTNPYARGPNPTAASLEASAGPFTVRSFTVSRPSGYGAGTVYYPTNAGGTVGAIAIVPGYTARQSSIKWWGPRLASHGFVVITIDTNSTFDYPSSRSSQQMAALRQVASLNGDSSSPIYGKVDTARMGVMGHSMGGGASLRSAANNPSLKAAIPQAPWDSQTNFSSVTVPTLIFACENDSIAPVNSHALPIYDSMSRNAKQFLEINGGSHSCANSGNSNQALIGKKGVAWMKRFMDNDTRYSTFACENPNSTAVSDFRTANCS [DuraPETase]
Settings | MHET released, [4] [mM] | PET hydrolysis product formed, [1] | PET hydrolysis product formed, [3] | terephthalic acid, [2] [mM]
PET substrate: aFilm, 60 °C, pH 4.5 | 0 | 0 | 0 | 0.00462 ± 0.0065
PET substrate: aFilm, 60 °C, pH 5.5 | 0 | 0 | 0 | 0
PET substrate: aFilm, 60 °C, pH 6.5 | 0 | 0 | 0 | 0
PET substrate: aFilm, 60 °C, pH 7.5 | 0.182 ± 0.01 | 0.0929 ± 0.001 | 0 | 0.102 ± 0.0056
PET substrate: aFilm, 60 °C, pH 8.5 | 0.099 ± 0.031 | 0.0536 ± 0.017 | 0 | 0.0886 ± 0.028
PET substrate: aFilm, 60 °C, pH 9.5 | 0.152 ± 0.11 | 0.126 ± 0.074 | 0.0223 ± 0.0018 | 0.344 ± 0.23
PET substrate: aFilm, 70 °C, pH 4.5 | 0 | 0 | 0 | 0
PET substrate: aFilm, 70 °C, pH 5.5 | 0 | 0 | 0 | 0
PET substrate: aFilm, 70 °C, pH 6.5 | 0 | 0 | 0 | 0
PET substrate: aFilm, 70 °C, pH 7.5 | 0.00907 ± 0.0052 | 0.00371 ± 0.0053 | 0 | 0.0128 ± 0.0049
PET substrate: aFilm, 70 °C, pH 8.5 | 0.00981 ± 0.0052 | 0.00439 ± 0.0062 | 0 | 0.0158 ± 0.0083
PET substrate: aFilm, 70 °C, pH 9.5 | 0 | 0.0201 ± 0.0018 | 0.0191 ± 0.00099 | 0.0892 ± 0.011
PET substrate: cryPow, 60 °C, pH 4.5 | 0 | 0 | 0 | 0
PET substrate: cryPow, 60 °C, pH 5.5 | 0 | 0 | 0 | 0
PET substrate: cryPow, 60 °C, pH 6.5 | 0.0436 ± 0.008 | 0.0167 ± 0.003 | 0 | 0.00832 ± 0.0013
PET substrate: cryPow, 60 °C, pH 7.5 | 0.21 ± 0.0064 | 0.0809 ± 0.0013 | 0.0496 | 0.0835 ± 0.0026
PET substrate: cryPow, 60 °C, pH 8.5 | 0.169 ± 0.011 | 0.0578 ± 0.007 | 0.032 ± 0.001 | 0.0926 ± 0.0049
PET substrate: cryPow, 60 °C, pH 9.5 | 0.123 ± 0.027 | 0.0891 ± 0.015 | 0.0701 ± 0.00082 | 0.384 ± 0.049
PET substrate: cryPow, 70 °C, pH 4.5 | 0 | 0 | 0 | 0
PET substrate: cryPow, 70 °C, pH 5.5 | 0 | 0 | 0 | 0
PET substrate: cryPow, 70 °C, pH 6.5 | 0.0107 ± 0.0024 | 0 | 0 | 0
PET substrate: cryPow, 70 °C, pH 7.5 | 0.0884 ± 0.021 | 0.0465 ± 0.014 | 0.0447 ± 0.0013 | 0.12 ± 0.03
PET substrate: cryPow, 70 °C, pH 8.5 | 0.0546 ± 0.011 | 0.0236 ± 0.0064 | 0.0151 ± 0.005 | 0.0557 ± 0.011
PET substrate: cryPow, 70 °C, pH 9.5 | 0 | 0 | 0.0191 ± 0.027 | 0.0155 ± 0.005
